# T1: human HVEM-Ig (human, UniProt Q92956 39-202)
# T1 construct: Expressed and purified in house; also called HVEM-Fc; Herpes virus entry mediator-Ig
# T1 sequence (looked up): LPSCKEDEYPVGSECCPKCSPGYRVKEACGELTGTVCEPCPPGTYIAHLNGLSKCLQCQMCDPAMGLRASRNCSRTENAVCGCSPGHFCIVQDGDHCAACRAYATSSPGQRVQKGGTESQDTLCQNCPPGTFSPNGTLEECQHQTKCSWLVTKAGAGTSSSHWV
# T2: murine HVEM-Ig (mouse, UniProt Q80WM9 39-210)
# T2 construct: Expressed and purified in house
# T2 sequence (looked up): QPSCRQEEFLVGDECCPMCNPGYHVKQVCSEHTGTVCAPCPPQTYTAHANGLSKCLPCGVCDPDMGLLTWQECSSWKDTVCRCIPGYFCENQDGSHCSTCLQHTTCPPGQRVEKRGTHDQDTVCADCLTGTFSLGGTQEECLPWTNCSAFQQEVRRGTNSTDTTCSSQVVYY
# Columns and labels:
# human HVEM-Ig [1] = target: T1, human HVEM-Ig; assay: ELISA, huHVEM-Ig coated at 0.2 ug/ml, HRP goat anti-human kappa; the number is C of the printed 4-P fit (A 0.08, B 1.089, D 1.303, R^2 0.999); Fab-Light is BIIB71F10-132 by paragraph 503
# Description: (§1) Human and murine ErbB2-Fc were obtained from R&D Systems. Wells of 96-well plates were coated with 2 ug/ml or 0.2 ug/ml of human or murine HER2-Fc by incubation overnight at 4-8° C. with either of these six proteins (80 ul/well of a 0.2 or 2 ug/ml solution in PBS). Wells were emptied, filled completely with a solution of PBS with 1% BSA (blocking buffer) and incubated at room temperature for 1 hour. Wells were emptied, washed twice PBS containing 0.05% Tween 20 (PBST) and filled with the samples (80 ul/well of 3× dilution series of the standard and supernatants in blocking buffer) prepared in another 96-well plate. After a 2-hour incubation at room temperature, the wells were emptied, washed three times with PBST and filled with a solution of HRP-conjugated goat pAbs anti-human kappa chain (80 ul/well of a 2000-fold dilution in blocking buffer). After 1-hour incubation, the wells were emptied and filled with a solution of HRP substrate prepared freshly. The color was left to develop for 3 minutes and was stopped by addition of an equal volume of 1N H₂SO₄. Absorbance was measured at 450 nm using a Plate Reader (SpectraMax, Molecular Devices). The data was processed and graphs were created using SoftMax Pro software.
# (§2) Human and murine HVEM-Ig were expressed and purified in house.
# murine LTβR-Ig [2] = target: T3, murine LTβR-Ig (mouse, UniProt P50284 31-223); assay: ELISA, muLTBR-Ig coated at 2 ug/ml, HRP goat anti-human kappa; the number is C of the printed 4-P fit (A 0.093, B 0.898, D 1.613, R^2 0.995); Fab-Light is BIIB71F10-132 by paragraph 502
# T3 construct: Expressed and purified in house; also called mLTbR; murine LTBR-Ig
# T3 sequence (P50284 31-223): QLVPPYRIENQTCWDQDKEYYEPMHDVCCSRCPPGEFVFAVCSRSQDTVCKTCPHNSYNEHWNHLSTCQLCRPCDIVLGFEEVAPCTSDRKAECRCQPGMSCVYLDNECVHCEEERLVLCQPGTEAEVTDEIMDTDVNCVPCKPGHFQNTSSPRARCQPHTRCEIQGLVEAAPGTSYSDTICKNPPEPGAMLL
# Description: as §1
# (§3) Human and murine LTBR-Ig were expressed and purified in house.
# human LTβR-Ig [3] = target: T4, human LTβR-Ig (human, UniProt P36941 31-227); assay: ELISA, huLTBR-Ig coated at 2 ug/ml, HRP goat anti-human kappa; the number is C of the printed 4-P fit (A 0.025, B 0.807, D 1.574, R^2 0.998); Fab-Light is BIIB71F10-132 by paragraph 502
# T4 construct: Expressed and purified in house; also called hLTbR-Ig; human LTBR-Ig
# Description: as §1, §3
# human LTβR-Ig [4] = target: T4, human LTβR-Ig; assay: FACS (LTbR column of Table 2; format not told there)
# human HVEM-Ig [5] = target: T1, human HVEM-Ig; assay: FACS (HVEM column of Table 2; format not told there)
# human LTβR-Ig [6] = target: T4, human LTβR-Ig; assay: ELISA on coated LTbR-Ig
# Description: as §1, §3
# murine HVEM-Ig = target: T2, murine HVEM-Ig; assay: ELISA, muHVEM-Ig coated at 2 ug/ml, HRP goat anti-human kappa; the number is C of the printed 4-P fit (A 0.036, B 0.816, D 1.534, R^2 0.997); Fab-Light is BIIB71F10-132 by paragraph 503
# Description: as §1, §2
# [7] = target: T5, human HER2/ErbB2 on cells (human, UniProt P04626 23-1255); assay: FACS on HER2-expressing cells
# T5 construct: whole, on cells; also called hHER2/ErbB2; wild type HER2/ErbB
# murine LTβR-Ig [8] = target: T3, murine LTβR-Ig; assay: ELISA, muLTBR-Ig coated at 0.2 ug/ml, HRP goat anti-human kappa; the number is C of the printed 4-P fit (A 0.064, B 0.872, D 1.453, R^2 0.999); Fab-Light is BIIB71F10-132 by paragraph 502
# Description: as §1, §3
# human LTBR-mIgG fusion = target: T6, human LTBR-mIgG fusion; assay: sandwich ELISA after incubation at 200 ng/ml in human serum (cold or 37°C overnight): HER2-Fc on the plate, human LTBR-mIgG, HRP anti-mouse IgG; the signal needs both bindings at once
# T6 construct: kept apart from m25 (human Fc); not shown: exact end of the LTBR part
# Description: An ELISA assay was developed to detect LIGHT-Ab fusions after incubation with human sera. Briefly, 200 ng/mL of LIGHT-Ab fusions were incubated overnight in human serum at 37° C. The serum was assayed in sandwich ELISA as follows. HER2-Fc was immobilized to a solid surface, and was used to capture the LIGHT-Ab fusions. The serum incubated fusion proteins were added to the solid surface. Detection was effected using a human LTBR-mIgG fusion to bind to the LIGHT moiety of the fusion. Horseradish peroxidase (HRP) labeled anti-mouse IgG was used to detect bound LIGHT-Ab fusions.
# human LTβR-Ig [9] = target: T4, human LTβR-Ig; assay: ELISA, huLTBR-Ig coated at 0.2 ug/ml, HRP goat anti-human kappa; the number is C of the printed 4-P fit (A 0.057, B 0.9, D 1.548, R^2 0.998); Fab-Light is BIIB71F10-132 by paragraph 502
# Description: as §1, §3
# human HER2-Fc = target: T7, human HER2-Fc (human, UniProt P04626 23-652); assay: ELISA on coated HER2-Fc
# T7 construct: Bought from R&D Systems: homodimeric fusion of the HER2 extracellular domain and human IgG1 Fc; also called human ErbB2-Fc; rhErbB2-Fc; not shown: Fc fragment of human IgG1
# Description: as §1
binder,measurement,setting,value
"71F10 Fab-hLIGHT fusion with the (G4S)4 linker (BIIB71F10-132) (other, Trimer of Fab-LIGHT units; also called 71F10 Fab-(G4S)4-LIGHT) heavy: EVQLLESGGGLVQPGGSLRLSCAASGFTFSSYGMVWVRQAPGKGLEWVSSISSSGGLTWYADSVKGRFTISRDNSKNTLYLQMNSLRAEDTAVYYCASPPGIAVARDYWGQGTLVTVSSASTKGPSVFPLAPSSKSTSGGTAALGCLVKDYFPEPVTVSWNSGALTSGVHTFPAVLQSSGLYSLSSVVTVPSSSLGTQTYICNVNHKPSNTKVDKKVEPKSCDKGGGGSGGGGSGGGGSGGGGSNPAAHLTGANSSLTGSGGPLLWETQLGLAFLRGLSYHDGALVVTKAGYYYIYSKVQLGGVGCPLGLASTITHGLYKRTPRYPEELELLVSQQSPCGRATSSSRVWWDSSFLGGVVHLEAGEEVVVRVLDERLVRLRDGTRSYFGAFMV light: DIQMTQSPSSLSASVGDRVTITCRASQGISNYLAWYQQKPGKVPKLLIYAASTLQSGVPSRFSGSGSGTDFTLTISSLQPEDVATYYCQKYNSALLTFGGGTKVEIKRTVAAPSVFIFPPSDEQLKSGTASVVCLLNNFYPREAKVQWKVDNALQSGNSQESVTEQDSKDSTYSLSSTLTLSKADYEKHKVYACEVTHQGLSSPVTKSFNRGEC",EC50,human HVEM-Ig [1],3.98 ng/mL
same,EC50,murine LTβR-Ig [2],3.57 ng/mL
same,EC50,human LTβR-Ig [3],2.69 ng/mL
same,EC50,human LTβR-Ig [4],200 pM
same,EC50,human HVEM-Ig [5],500 pM
same,EC50,human LTβR-Ig [6],10 pM
same,EC50,murine HVEM-Ig,2.5 ng/mL
same,EC50,[7],500 pM
same,EC50,murine LTβR-Ig [8],58.8 ng/mL
same,binding result,human LTBR-mIgG fusion,binds
same,EC50,human LTβR-Ig [9],1.91 ng/mL
same,EC50,human HER2-Fc,50 pM
